T1: CD70 (on CD70+ 786-O target cells) (UniProt P32970)
T1 sequence (looked up): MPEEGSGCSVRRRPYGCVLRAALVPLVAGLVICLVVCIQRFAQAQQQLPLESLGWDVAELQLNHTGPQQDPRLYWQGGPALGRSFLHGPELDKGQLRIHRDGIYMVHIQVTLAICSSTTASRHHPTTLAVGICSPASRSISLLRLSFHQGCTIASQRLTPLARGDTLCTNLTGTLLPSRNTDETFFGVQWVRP


What follows are binders tested against T1, CD70 (on CD70+ 786-O target cells) (assay: cell-based or functional assay).

Row | Binder | half maximal lysis (EC50), ADCC 51Cr release assay [ng/mL] | maximal specific lysis [percent]
1 | control h1F6 antibody (humanized IgG1 anti-CD70 monoclonal antibody, from CHO DG44 cells cultured without fucose analog; core fucosylated) (antibody, INN chains, looked up, V domains shown) VH: QVQLVQSGAEVKKPGASVKVSCKASGYTFTNYGMNWVRQAPGQGLKWMGWINTYTGEPTYADAFKGRVTMTRDTSISTAYMELSRLRSDDTAVYYCARDYGDYGMDYWGQGTTVTVSS VL: DIVMTQSPDSLAVSLGERATINCRASKSVSTSGYSFMHWYQQKPGQPPKLLIYLASNLESGVPDRFSGSGSGTDFTLTISSLQAEDVAVYYCQHSREVPWTFGQGTKVEIK | 9 | 42.5
2 | h1F6 antibody from host cells cultured in the presence of 50 µM alkynyl fucose peracetate (non-core fucosylated anti-CD70 antibody) (antibody, INN chains, looked up, V domains shown, non-core fucosylated (alkynyl fucose)) VH: QVQLVQSGAEVKKPGASVKVSCKASGYTFTNYGMNWVRQAPGQGLKWMGWINTYTGEPTYADAFKGRVTMTRDTSISTAYMELSRLRSDDTAVYYCARDYGDYGMDYWGQGTTVTVSS VL: DIVMTQSPDSLAVSLGERATINCRASKSVSTSGYSFMHWYQQKPGQPPKLLIYLASNLESGVPDRFSGSGSGTDFTLTISSLQAEDVAVYYCQHSREVPWTFGQGTKVEIK | 0.5 | 53.3
3 | h1F6 antibody from host cells cultured in the presence of 100 µM alkynyl fucose peracetate (antibody, INN chains, looked up, IgG1, V domains shown, produced with 100 µM alkynyl fucose) VH: QVQLVQSGAEVKKPGASVKVSCKASGYTFTNYGMNWVRQAPGQGLKWMGWINTYTGEPTYADAFKGRVTMTRDTSISTAYMELSRLRSDDTAVYYCARDYGDYGMDYWGQGTTVTVSS VL: DIVMTQSPDSLAVSLGERATINCRASKSVSTSGYSFMHWYQQKPGQPPKLLIYLASNLESGVPDRFSGSGSGTDFTLTISSLQAEDVAVYYCQHSREVPWTFGQGTKVEIK | 0.3 | 54.8
